The target in assay [1] is T1, murine CD28 on the surface of primary mouse T cells (mouse, UniProt P31041 20-218).
T1 construct: whole, on cells
The assay can be described thus: flow cytometry on primary mouse T cells, 50 nM antibody. On the technique in general: Flow cytometry measures light scatter and fluorescence of single cells or particles in a stream.

Assay [2] addresses T2, human CD28 expressed on primary human T cells (human, UniProt P10747 19-220).
T2 construct: whole, on cells; also called primary human T cells expressing CD28
The assay can be described thus: flow cytometry on primary human T cells, 50 nM antibody.
Description: Cells were first blocked for 30 minutes in FACS buffer (PBS, 2% FBS and 2 mM EDTA). […] Zombie near infrared (NIR) was used to discriminate live from dead cells.

The target in assay [3] is T3, human CD28-ECD (extracellular domain) recombinant fragment containing a C-terminal Avi tag, His6 tag and Fc … (human, site specifically biotinylated using BirA (Avi tag) in the ELISA of Example 2.1).
T3 construct: also called CD28-Fc; CD28-Fc fusion protein
Put plainly: titration ELISA.

The next assay addresses T4, murine CD28 Fc (mouse, UniProt P31041 20-150).
T4 construct: also called murine CD28 ECD; mouse CD28 Fc; not shown: His6 tag and Fc part of the murine construct
Put plainly: titration ELISA, His6-tagged CD28-ECD on NiNTA plates, FITC-conjugated antibody. In general terms: ELISA stands for enzyme-linked immunosorbent assay.

The target in assay [4] is T5, human CTLA-4 protein containing His6 Tag (SinoBiological, Cat: 11159-H08H) (human, UniProt P16410 36-162).
T5 construct: Bought protein
Put plainly: titration ELISA, His6-tagged human CTLA-4 on NiNTA plates, FITC-conjugated antibody.

Assay [5] addresses T1, murine CD28 on the surface of primary …. The assay can be described thus: flow cytometry on primary mouse T cells.
Description: Cells were first blocked for 30 minutes in FACS buffer (PBS, 2% FBS and 2 mM EDTA). […] Zombie NIR was used to discriminate live from dead cells.

T3 sequence (chain, as listed by the source limits assumed): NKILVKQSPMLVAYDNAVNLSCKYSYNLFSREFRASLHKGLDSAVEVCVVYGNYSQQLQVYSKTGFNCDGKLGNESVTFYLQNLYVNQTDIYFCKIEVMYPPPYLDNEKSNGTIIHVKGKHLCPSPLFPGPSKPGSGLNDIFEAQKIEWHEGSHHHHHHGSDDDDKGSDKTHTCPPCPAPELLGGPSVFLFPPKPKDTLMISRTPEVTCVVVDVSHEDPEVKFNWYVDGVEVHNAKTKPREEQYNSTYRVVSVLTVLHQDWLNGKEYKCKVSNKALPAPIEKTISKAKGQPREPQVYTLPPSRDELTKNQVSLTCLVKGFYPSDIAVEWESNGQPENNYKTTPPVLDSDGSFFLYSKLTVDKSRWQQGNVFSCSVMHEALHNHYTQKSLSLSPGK

B1: anti-human CEA IgG/AE2P (scFv)2 bispecific antibody in IgG-(scFv)2 (2+2) format (format 1, FIG. 13) (bispecific antibody)
heavy: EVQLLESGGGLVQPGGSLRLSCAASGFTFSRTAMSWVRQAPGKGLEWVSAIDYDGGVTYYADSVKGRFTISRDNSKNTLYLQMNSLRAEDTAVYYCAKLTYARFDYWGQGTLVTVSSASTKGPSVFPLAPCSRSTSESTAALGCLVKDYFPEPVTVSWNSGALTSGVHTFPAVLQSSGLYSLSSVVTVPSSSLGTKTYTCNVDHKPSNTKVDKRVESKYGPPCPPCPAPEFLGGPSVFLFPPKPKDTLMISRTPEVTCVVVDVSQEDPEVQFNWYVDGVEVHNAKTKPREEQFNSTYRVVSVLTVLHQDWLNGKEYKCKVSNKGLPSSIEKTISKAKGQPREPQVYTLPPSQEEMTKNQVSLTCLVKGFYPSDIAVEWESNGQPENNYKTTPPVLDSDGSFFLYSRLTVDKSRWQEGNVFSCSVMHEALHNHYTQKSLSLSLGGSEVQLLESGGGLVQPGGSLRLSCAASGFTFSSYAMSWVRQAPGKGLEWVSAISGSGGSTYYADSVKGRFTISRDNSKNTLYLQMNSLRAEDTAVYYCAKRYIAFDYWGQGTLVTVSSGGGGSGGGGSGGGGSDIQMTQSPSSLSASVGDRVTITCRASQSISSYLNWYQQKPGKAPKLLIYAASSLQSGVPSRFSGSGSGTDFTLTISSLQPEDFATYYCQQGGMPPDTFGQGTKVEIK
light: EIVLTQSPGTLSLSPGERATLSCRASQSVSQNHLAWYQQKPGQAPRLLIYLASRRHTGIPDRFSGSGSGTDFTLTISRLEPEDFAVYYCQQSGRVPWTFGQGTKVEIKRTVAAPSVFIFPPSDEQLKSGTASVVCLLNNFYPREAKVQWKVDNALQSGNSQESVTEQDSKDSTYSLSSTLTLSKADYEKHKVYACEVTHQGLSSPVTKSFNRGEC
notes: also called anti-human CEA IgG/anti-CD28 (scFv)2 bispecific antibody
B1: the binding result in assay [1] was “binds”.

B2: AE2P antibody in IgG4 format (antibody, V domains shown)
VH: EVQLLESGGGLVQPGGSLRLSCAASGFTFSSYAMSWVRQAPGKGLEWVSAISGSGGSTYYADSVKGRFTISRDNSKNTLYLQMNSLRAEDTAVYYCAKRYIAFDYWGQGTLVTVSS
VL: DIQMTQSPSSLSASVGDRVTITCRASQSISSYLNWYQQKPGKAPKLLIYAASSLQSGVPSRFSGSGSGTDFTLTISSLQPEDFATYYCQQGGMPPDTFGQGTKVEIKR
notes: unconjugated in flow cytometry; also called AE2P IgG4; IgG4 (AE2P)
For B2, the binding result (in assay [2]; in assay [3]; with murine CD28 Fc; in assay [4]; in assay [1]) was “binds” in each case.

B3: TGN1412 IgG4 (antibody, V domains shown)
VH: QVQLVQSGAEVKKPGASVKVSCKASGYTFTSYYIHWVRQAPGQGLEWIGCIYPGNVNTNYNEKFKDRATLTVDTSISTAYMELSRLRSDDTAVYFCTRSHYGLDWNFDVWGQGTTVTVSS
VL: not shown
notes: U.S. Pat. No. 8,709,414'; also called TGN1412 antibody in IgG4 format
Consider B3, for which the binding result with murine CD28 Fc was “no binding”; in assay [4] it was “no binding”; in assay [5], “no binding (tested: 50 nM)”.

The record behind these values is US20250368738A1 (PHILOGEN S P A, published 2025).
